The values that follow come from patent publication US20190194300A1.

In the assay the target is Staphylococcus aureus autoinducing peptide-2 (AIP2) (Staphylococcus aureus). Briefly: SPR, BiaCore T200. (SPR reads the build-up and loss of mass on a sensor chip optically.)

B1: wild type anti-AIP2 antibody E7 (antibody, V domains shown)
VH: EVQLVQSGAEVKKPGASVRVSCKTSGYSFTSYDINWVRQTTGQGLEWMGWVNPTSGSTGYAQKFQGRVTMTANTAINTAYMELRDLRSEDTAVYFCVRDVPFDPWGQGTLVTVSS
VL: QSVLTQPASVSGSPGQSITISCTGTSSDVGKYTFVSWYQQHPGKAPKVMVYEVNKRPLGVSPRFSGSKSGNTAYLTISGLQAEDEADYYCSSYTSSSTVVFGGGTKLTVL
As to B1, the Ka worked out at 1.85e+07 M⁻¹; the Kd (in general, the free concentration of one partner at which half of the binding sites on the other are occupied at equilibrium, for simple one-to-one binding) was determined as 53.9 nM; the koff (as a rule, the rate constant with which the complex falls apart) worked out at 0.027 s⁻¹; the kon (usually a measure of how fast the partners come together) was found to be 501000 M⁻¹ s⁻¹.

B2: variant anti-AIP2 antibody X12 (antibody, V domains shown)
VH: QVQLVQSGAEVKKPGASVRVSCKTSGYSFTVYDINWVRQTTGQGLEWMGWVNPTSGSTGYAQKFQGRVTMTANTAINTAYMELRDLRSEDTAVYFCVRDVPVDPWGQGTTVTVSS
VL: QSVLTQPASVSGSPGQSITISCTGTSSDVGKYLFVSWYQQHPGKAPKVMVYEVNKRPLGVSPRFSGSKSGNTAYLTISGLQAEDEADYYCSSYTSSSTVVFGGGTKLTVL
Take B2: the Ka was found to be 1.54e+07 M⁻¹, the Kd stood at 64.9 nM, the koff amounted to 0.012 s⁻¹ and the kon stood at 186000 M⁻¹ s⁻¹.

B3: variant anti-AIP2 antibody X18 (antibody, V domains shown)
VH: EVQLVQSGAEVKKPGASVRVSCKTSGYSGTSYDINWVRQTTGQGLEWMGWVNPTSGSTGYAQKFQGRVTMTANTAINTAYMELRDLRSEDTAVYFCVRDVPVDPWGQGTLVTVSS
VL: QSVLTQPASVSGSPGQSITISCTGTSSDVGKYTFVSWYQQHPGKAPKVMVYEVNKRPLGVSPRFSGSKSGNTAYLTISGLQAEDEADYYCSSYASSSTVVFGGGTKLTVL
Turning to B3, the Ka amounted to 2.85e+07 M⁻¹, the Kd was determined as 35 nM, the koff was 0.02 s⁻¹ and the kon stood at 570000 M⁻¹ s⁻¹.
